This note sets out measurements from doi:10.1101/2021.11.08.467681 (bioRxiv, 2021).

B1: FtsA WT(1-405)-6xHis (domain or fragment)
chain: MIKATDRKLVVGLEIGTAKVAALVGEVLPDGMVNIIGVGSCPSRGMDKGGVNDLESVVKCVQRAIDQAELMADCQISSVYLALSGKHISCQNEIGMVPISEEEVTQEDVENVVHTAKSVRVRDEHRVLHVIPQEYAIDYQEGIKNPVGLSGVRMQAKVHLITCHNDMAKNIVKAVERCGLKVDQLIFAGLASSYSVLTEDERELGVCVVDIGGGTMDIAVYTGGALRHTKVIPYAGNVVTSDIAYAFGTPPSDAEAIKVRHGCALGSIVGKDESVEVPSVGGRPPRSLQRQTLAEVIEPRYTELLNLVNEEILQLQEKLRQQGVKHHLAAGIVLTGGAAQIEGLAACAQRVFHTQVRIGAPLNITGLTDYAQEPYYSTAVGLLHYGKESHLNGEAEVEKRVTASV
B2: FtsA R286W (1-405)-6xHis (domain or fragment)
chain: MIKATDRKLVVGLEIGTAKVAALVGEVLPDGMVNIIGVGSCPSRGMDKGGVNDLESVVKCVQRAIDQAELMADCQISSVYLALSGKHISCQNEIGMVPISEEEVTQEDVENVVHTAKSVRVRDEHRVLHVIPQEYAIDYQEGIKNPVGLSGVRMQAKVHLITCHNDMAKNIVKAVERCGLKVDQLIFAGLASSYSVLTEDERELGVCVVDIGGGTMDIAVYTGGALRHTKVIPYAGNVVTSDIAYAFGTPPSDAEAIKVRHGCALGSIVGKDESVEVPSVGGRPPWSLQRQTLAEVIEPRYTELLNLVNEEILQLQEKLRQQGVKHHLAAGIVLTGGAAQIEGLAACAQRVFHTQVRIGAPLNITGLTDYAQEPYYSTAVGLLHYGKESHLNGEAEVEKRVTASV
B3: FtsA WT (natural protein)
chain: MIKATDRKLVVGLEIGTAKVAALVGEVLPDGMVNIIGVGSCPSRGMDKGGVNDLESVVKCVQRAIDQAELMADCQISSVYLALSGKHISCQNEIGMVPISEEEVTQEDVENVVHTAKSVRVRDEHRVLHVIPQEYAIDYQEGIKNPVGLSGVRMQAKVHLITCHNDMAKNIVKAVERCGLKVDQLIFAGLASSYSVLTEDERELGVCVVDIGGGTMDIAVYTGGALRHTKVIPYAGNVVTSDIAYAFGTPPSDAEAIKVRHGCALGSIVGKDESVEVPSVGGRPPRSLQRQTLAEVIEPRYTELLNLVNEEILQLQEKLRQQGVKHHLAAGIVLTGGAAQIEGLAACAQRVFHTQVRIGAPLNITGLTDYAQEPYYSTAVGLLHYGKESHLNGEAEVEKRVTASVGSWIKRLNSWLRKEF

The data set concerns the molecule itself. Nature of the data set: FRET or BRET. On the technique in general: In BRET a luciferase serves as donor, and the signal depends on an acceptor being close.
Consider B1, for which the binding result is listed as “binds”.
Turning to B2, the binding result was “binds”.
Under B3 stands “binds”.
